Data published in PMC7010609 (2020).

T1: Xenopus laevis StrepII-FANCD2 (Xenopus laevis)
T1 chain: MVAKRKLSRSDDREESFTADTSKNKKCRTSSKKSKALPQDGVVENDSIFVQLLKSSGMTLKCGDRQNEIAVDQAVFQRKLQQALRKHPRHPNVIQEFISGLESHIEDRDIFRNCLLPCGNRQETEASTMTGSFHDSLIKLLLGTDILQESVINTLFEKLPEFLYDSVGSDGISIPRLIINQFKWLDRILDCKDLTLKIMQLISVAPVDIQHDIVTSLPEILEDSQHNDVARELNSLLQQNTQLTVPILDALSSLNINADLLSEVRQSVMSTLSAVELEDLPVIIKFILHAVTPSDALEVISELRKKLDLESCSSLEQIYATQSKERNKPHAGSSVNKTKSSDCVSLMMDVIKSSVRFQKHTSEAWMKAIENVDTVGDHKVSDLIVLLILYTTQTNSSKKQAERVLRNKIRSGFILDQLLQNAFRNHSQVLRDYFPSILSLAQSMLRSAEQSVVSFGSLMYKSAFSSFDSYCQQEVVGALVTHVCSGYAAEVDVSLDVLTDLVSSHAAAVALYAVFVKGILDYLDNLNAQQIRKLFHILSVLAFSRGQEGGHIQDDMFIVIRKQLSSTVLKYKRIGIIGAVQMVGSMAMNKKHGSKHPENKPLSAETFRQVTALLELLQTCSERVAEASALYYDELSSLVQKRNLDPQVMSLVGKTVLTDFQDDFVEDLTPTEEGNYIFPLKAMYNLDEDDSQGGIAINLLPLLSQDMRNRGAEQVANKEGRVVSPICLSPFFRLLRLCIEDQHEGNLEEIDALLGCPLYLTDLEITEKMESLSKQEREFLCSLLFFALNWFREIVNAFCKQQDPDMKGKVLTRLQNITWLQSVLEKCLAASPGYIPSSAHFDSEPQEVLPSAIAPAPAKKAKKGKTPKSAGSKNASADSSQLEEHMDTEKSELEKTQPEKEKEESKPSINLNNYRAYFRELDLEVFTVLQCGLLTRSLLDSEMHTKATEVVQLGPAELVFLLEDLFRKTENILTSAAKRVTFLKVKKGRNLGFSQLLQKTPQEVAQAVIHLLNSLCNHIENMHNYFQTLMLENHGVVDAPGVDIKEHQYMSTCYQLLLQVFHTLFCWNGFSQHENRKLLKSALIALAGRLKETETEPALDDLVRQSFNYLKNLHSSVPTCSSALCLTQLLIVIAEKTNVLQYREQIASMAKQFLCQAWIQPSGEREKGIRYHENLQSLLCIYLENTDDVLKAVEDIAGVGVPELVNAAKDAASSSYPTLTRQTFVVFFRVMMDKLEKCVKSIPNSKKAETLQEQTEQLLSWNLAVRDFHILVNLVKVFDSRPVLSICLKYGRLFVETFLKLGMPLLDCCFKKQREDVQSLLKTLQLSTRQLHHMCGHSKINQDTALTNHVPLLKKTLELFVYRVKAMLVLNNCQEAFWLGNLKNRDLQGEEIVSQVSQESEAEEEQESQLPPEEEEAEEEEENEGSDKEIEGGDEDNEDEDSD

T2: Xenopus laevis StrepII-FANCD2
T2 chain: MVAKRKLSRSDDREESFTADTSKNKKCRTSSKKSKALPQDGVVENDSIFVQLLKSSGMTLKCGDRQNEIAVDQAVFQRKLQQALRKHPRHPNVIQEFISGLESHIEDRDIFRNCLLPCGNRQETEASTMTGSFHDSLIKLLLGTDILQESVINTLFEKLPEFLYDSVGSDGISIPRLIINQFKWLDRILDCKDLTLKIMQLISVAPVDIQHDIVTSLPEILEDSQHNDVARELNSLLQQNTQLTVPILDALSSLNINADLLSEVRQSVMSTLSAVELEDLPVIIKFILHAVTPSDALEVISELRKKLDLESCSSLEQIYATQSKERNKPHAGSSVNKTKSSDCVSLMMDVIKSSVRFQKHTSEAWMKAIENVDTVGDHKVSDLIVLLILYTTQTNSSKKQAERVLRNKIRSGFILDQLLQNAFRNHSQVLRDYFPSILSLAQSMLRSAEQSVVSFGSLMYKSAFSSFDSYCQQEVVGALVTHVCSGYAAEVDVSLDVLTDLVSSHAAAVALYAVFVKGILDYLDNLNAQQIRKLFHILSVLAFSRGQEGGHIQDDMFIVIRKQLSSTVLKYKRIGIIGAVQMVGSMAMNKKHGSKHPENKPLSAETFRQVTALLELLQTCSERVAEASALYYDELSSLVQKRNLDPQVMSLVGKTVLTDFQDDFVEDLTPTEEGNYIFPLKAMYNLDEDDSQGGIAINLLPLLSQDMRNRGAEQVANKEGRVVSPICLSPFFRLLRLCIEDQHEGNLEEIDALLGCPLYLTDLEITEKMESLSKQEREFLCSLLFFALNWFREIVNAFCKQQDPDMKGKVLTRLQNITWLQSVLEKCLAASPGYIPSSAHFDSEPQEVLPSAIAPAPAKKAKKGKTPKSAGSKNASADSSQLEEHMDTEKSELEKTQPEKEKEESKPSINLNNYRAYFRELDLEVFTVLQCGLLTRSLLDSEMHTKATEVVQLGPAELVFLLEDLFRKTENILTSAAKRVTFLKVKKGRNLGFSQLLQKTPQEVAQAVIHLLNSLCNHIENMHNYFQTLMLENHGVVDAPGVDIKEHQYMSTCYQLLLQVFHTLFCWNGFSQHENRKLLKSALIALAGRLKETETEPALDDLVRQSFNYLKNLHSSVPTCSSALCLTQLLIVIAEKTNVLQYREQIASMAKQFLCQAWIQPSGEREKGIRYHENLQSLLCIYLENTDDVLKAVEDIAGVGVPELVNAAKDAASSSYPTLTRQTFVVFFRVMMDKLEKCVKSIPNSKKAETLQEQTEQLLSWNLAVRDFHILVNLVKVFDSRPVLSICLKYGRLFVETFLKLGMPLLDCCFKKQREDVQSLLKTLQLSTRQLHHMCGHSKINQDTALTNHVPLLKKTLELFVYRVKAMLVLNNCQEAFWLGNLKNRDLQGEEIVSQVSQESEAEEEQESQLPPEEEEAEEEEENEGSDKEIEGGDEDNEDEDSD


Columns and labels:
[1] = target: T1, Xenopus laevis StrepII-FANCD2; assay: BLI
[2] = target: T1, Xenopus laevis StrepII-FANCD2; assay: BLI
[3] = target: T2, Xenopus laevis StrepII-FANCD2; assay: Biolayer interferometry (BLItz); settings: chain shown with the change; StrepII-FANCD2-loaded biosensors in 20 ng/mL solution; FANCI 62.5-1000 nM

Row | Binder | koff [1] [s⁻¹] | Kd [2] [µM] | Kd [3] [µM] | koff [3] [s⁻¹]
1 | Xenopus laevis Flag-FANCI S6D phosphomimic mutant (natural protein, Full length assumed, since construct limits are not printed. Flag tag left out. The L homeolog is assumed; if it has no entry or the checks fail, try fanci.S or fanci. Expressed in Hi5 insect cells.) MDQKILSLAAEEQNDGLQSCLQNLKETELSEIITKHAVKGKDCGALLRGVFKGSPCSHDVAVRRRLAVYRHCIQLVESGDLQREVASEIMGLLMLEVHHFPGASLIELANLFADAVKAGTLSNGKSLDLFPTVLTALSSKESLAYGKGELTGEEFKKQLINSLCSSRWDPQSVIFLTSMFRDVSLSAEELQFVVEKVLRMLSKLDLQEMPPLVYQLLLLSAKGSKKNIVEGIITIFNDLDQKQLVQQENSESLDLEDATIPQDQLHHVEGTIILHIVFAIKLDQELGRELLKYLKAGQQGDTSKILCPFSAALLLSVSRIHRFQEQVFDFLKSTILRGYKDLQFHQSSKFLQDLVPQPVCVSSILLETVKNSVYGWDHVTQGLVELGFILMDSFGPKAAFGNKVVELISVHSRTPSQQACQLGSRILLETFKVHEPIRSEILEQVLNRVITKAATPVTHFIDLLSDIVVSAPLILQNSSSKVTEAFDHLSFLPLTTVQGLLKAVQPLLKISMSMRDSLILVLRKAMFSSQIDARKSAVAGFLLLLRNFKVLGSLSSDQCDQAIGADQIQVDVHMRYNAAANEAFCLEILGSLRRCLDQQADVRLMLYEGFYDVLRRNDQLASSVMQTLLDQLKRYYEPEPDLLPPLKLEGCITAQGDHIFLQEPLAHLLCCIHHCLQWYKSSLQQHRNPDEDDDDDDQTGCQQDLNDIMESITRRMIKCDLEDFELDKSADFSLASGVGVKNNIYAVLVMGICEVLIEYNFIIANFSKSKFEDILGLFKCYSKLSDILKEKAAKGRQPGNNKTARSLISMTFVSTLLTALFRDSTRSHEESLSILRANVDFMRYSVCVALQKIQQLEETGVTDGPDGQNSEKMFRSLCEITRVLMWRYTSIPAAAENPGKKDKGKTISLLCLEGLLRVFNTVQQRYPSKIPQFLTALDALGDEDEEGSREINVTEKAAFQIKQFQRSLINQLSGGEDDFNSKEALLLVSILSTLSRLLAPSSQQFVQMLSWTVKICKETNIEDVQFCKGIMNLLFSLHVQFKSPVSVLRELCQDIHGHLGDIDQDIEVEKQSHFATVSLKTAAPTVTLLVLGQAAKVLEEVDWLIIKLKGLLGSEKLSTEDLTQTSNARVPIEKAIILQLGTLLTACHELVQTALPAGSCTDTLLKELAKMYTILTSVVKYYLQICSSHGGQISARLEKLVKLSGSHLTPQCYAFITYVQNIHSESLSLAAEKKKKKKEEALTVTSAKILRDTKPIPNLIFAIEQYEKFLIHLSKKSKVNLMQYMKLSTSRDFRINAATLDAALQEKGSEDEENEPDNEQAVTEEESQEPKKKRRRK | 0.0061 | 0.136 | – | –
2 | Xenopus laevis Flag-FANCI wild type S557D; S560D; S566D; S597D; S618D; S630D (protein) MDQKILSLAAEEQNDGLQSYLQNLKETELSEIITKHAVKGKDCGALLRGVFKGSPCSHDVAVRRRLAVYRHCIQLVESGDLQREVASEIMGLLMLEVHHFPGASLIELANLFADAVKAGTLSNGKSLDLFPTVLTALSSKESLAYGKGELTGEEFKKQLINSLCSSRWDPQSVIFLTSMFRDVSLSAEELQFVVEKVLRMLSKLDLQEMPPLVYQLLLLSAKGSKKNIVEGIITIFNDLDQKQLVQQENSESLDLEDATIPQDQLHHVEGTIILHIVFAIKLDQELGRELLKYLKAGQQGDSSKILCPFSAALLLSVSRIHRFQEQVFDFLKSTILRDYKDLQFHQSSKFLQDLVPQPVCVSSILLETVKNSVYGWDHVTQGLVELGFILMDSFGPKAAFGNKVVELISVHSRTPSQQACQLGSRILLETFKVHEPIRSEILEQVLNRVITKAATPVTHFIDLLSDIVVSAPLILQNSSSKVTEAFDHLSFLPLTTVQGLLKAVQPLLKISMSMRDSLILVLRKAMFSSQIDARKSAVAGFLLLLRNFKVLGSLSSDQCDQAIGADQIQVDVHMRYNAAANEAFCLEILGSLRRCLDQQADVRLMLYEGFYDVLRRNDQLASSVMQTLLDQLKRYYEPEPDLLPPLKLEGCITAQGDHIFLQEPLAHLLCCIHHCLQWYKSSLQQHRNPDEDDDDDDQTGCQQDLNDIMESITRRMIKCDLEDFELDKSADFSLASGVGVKNNIYAVLVMGICEVLIEYNFIIANFSKSKFEDILGLFKCCSKLSDILKEKAAKGRQPGNNKTARSLISMTFVSTLLTALFRDSTRSHEESLSILRANVDFMRYSVCVALQKIQQLEETGVTDGPDGQNSEKMFRSLCEITRVLMWRYTSIPAAAENPGKKDKGKTISLLCLEGLLRVFNTVQQRYPSKIPQFLTALDALGDEDEEGSREINVTEKAAFQIKQFQRSLINQLSGGEDDFNSKEALLLVSILSTLSRLLAPSSQQFVQMLSWTVKICKETNIEDVQFCKGIMNLLFSLHVQFKSPVSVLRELCQDIHGHLGDIDQDIEVEKQSHFATVSLKTAAPTVTLLVLGQAAKVLEEVDWLIIKLKGLLGSEKLSTEDLTQTSNARVPIEKAIILQLGTLLTACHELVQTALPAGSCTDTLLKELAKMYTILTSVVKYYLQICSSHGGQISARLEKLVKLSGSHLTPQCYAFITYVQNIHSESLSLAAEKKKKKKEEALTVTSAKILRDTKPIPNLIFAIEQYEKFLIHLSKKSKVNLMQYMKLSTSRDFRINAATLDAALQEKGSEDEENEPDNEQAVTEEESQEPKKKRRRK | – | – | 0.136 | 0.0061
